Laboratory results published in the nanobody polyreactivity screen of Harvey et al. (2022).

Experiment: yeast display, Sf9 membrane polyspecificity reagent, FACS + sequencing; frameworks hold sequencing errors
How it was run: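 A nanobody's polyreactivity label depends on the gate it was sorted from. Yeast display cells were stained with 10% biotinylated, detergent-solubilized Sf9 membrane reagent for 1 hour at 4 °C, enriched on streptavidin microbeads and sorted by FACS. The low and high (top ~1%) gates were set on anti-HA fluorescence for expression and streptavidin fluorescence for reagent binding.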

Sequence	polyreactivity (PSR sort gate)
QVQLVESGGGLVQAGGSLRLSCAASGRIFWGYAMGWYRQAPGKERELVAGITSGGITNYADSVKGRFTISRDNAKNTVYLQMNSLKPEDTAVYYCNKDFWGYPRVRYYYWGQGTQVNVSS	high polyreactivity
QVQLVESGGGLVQAGGSLRLSCAASGFIFYLNAMGWSRKAPGKERELVAAISSSGGRTYYADSVKGRFTISRDNAKNTVYFQMNSLKAEDTAVYYCNAVTLYRSRTDGYWGQGTQVTVSS	high polyreactivity
QLQLEESGGGLVQAGGSLRLSFAASGLTFGRNAMGWYRQATGKVREFVAAISKSGTSTYYADSVKGRFTISRDNAKNTVYLQMISLKPEDTAVYDCARTNYAKRWDFDYWGQGTQVTVSS	low polyreactivity
QVQLVESGGGLVQAGGSLRLSCAASGLIFDPYAMGWYRQAPGKERELVADISSGGSTNYADSVKGRFTISRDNAKNTVYLQMTSLKPEDTAVYYCNKTIILDGYYFSLTLYDSWGQGTQVTVSS	low polyreactivity
QVQLVESGGGLVQAGGSLRLSCAASGLTFPYYVMGWYRQAPGKERELVAAISSSGGSTYYADSVKGRFTISRDNAKNTVYLQMNSLKPEDTAVYYCNAPYVFSAGFDYWGQGTQVTVSS	low polyreactivity
QVQLVESGGGLVQAGGSLRLSCPASGRIFYKYAMGWYRQAPGKERELVAAISSTGGSTNYADSVKGRFTISRDNAKNSVYFQMNSLKPEDTAVYYCNAVSRYYYPYYYWGQGTQVTVSS	low polyreactivity
QVQLVESGGGLVQAGGRLRLSCAASGSIYDDYAMGWNRQAPGKEREFVAAIDYSGGSTYYADSVKGRFTISRDNAKNTVYFQKNSLKPEDTAVYYCAKEAITRTFQYRHDYWGQGTQVTVSS	low polyreactivity
QVQLVESGGGLVQAGGSLRLSCAASGNTLVYYAMGWYRQAPGKERELVADISSSGGITYYADSVKGRFTISRDNAKNTVYLLMNSLKPVDTAVYYCAVDYPLYYWYLYNYWGQGTQVTVSS	low polyreactivity
QVQLVESGGGLVQAGGSLRLSSAASGRIFAKYAMGWYRQAPGKERELVAAISWGGGSTYYADSVKGRFTISRDNAKNTVYLQMNSLKPEDTAVYYCAARIPKQRDVRGSGMNYWGQGTQVTVSS	high polyreactivity
QVQLVESGGGLVQAGGSLRLSCAASGFTFRYYAMGWYRQAPGKERELVASINWSGGSTYYADSVKGRFTISRDNAKNTVYFQMNSLKPEDTAVYYCAADSIWGHYFARFDYWVQGTQVTVSS	high polyreactivity
QVQLVESRGGLVQAGGSLRLSCAASGSIFSYYPMGWYRQAPGKERELVAAISSRGGSTYYADSVKGRFTISRDNAKNTFYLQMNCLKPEDTAVYYCDDEWTSWFGVTYDYWGQGTQVTVSS	high polyreactivity
QVQLVESAGCLVQAGGSLRLSCAASGSTIYRYAMGWYRQAPGKERELVAAITRTGGSTYADSVKGRFTISRDNAKNSVFLQMNSLKPEDTAVFYCAVQRYYVSSISPFYYWGQGTQVTVSS	low polyreactivity
QVQLVESGGGLVQAGGSLRLSCAASGIIFSPYAMGWYRQAPGKERELVAAITNNGGGTYYADSVKGRFTISRDNAKNTVYLQMNSLKPEDTAVYYCAAEGFLEYPYYIWYDYWGQGTQVTVSS	high polyreactivity
QVHHVESGGGLVQAGGSLRLSCAASGRTFRYKAMGWYRQAPGKETELVARISRTGGRTYYADSVKGRFTISRDNAKTTVYLQMNSLKPEDTAVYYCNARKRYYSTRYNYWGQGTQVTVSS	high polyreactivity
QVQRVDSRGGLVQAGGSLRLSCAASGRIFRPNAMGWYRQAHGKQRELVAAITSNGGRTYYADSVKGRFTISRDNAKYTVYLQMNSLKPEDTAVYYCNAAPFRSGDGYWGQGTQVTVSS	high polyreactivity
QVQLVESGGGLVQAGGSLRLSCAASGSTFYTNDMGWYRQAPGKERELVAAITSAGNTNYADSVKGSFTISRDNAKNTVYLQMNSLKPEDTAVYYYYYYQYDYWGQGTQVTVSS	low polyreactivity
QVQLVESGGGLVQAGGSLRLSCAASGSTFINYAMGWYRQAPGKERELVAAISSSGGRTYYADSVKGSFTISRDNAKNTVYFLMNSLKPEDTAVYYCAASGRKNGMNYWGQGTLVTVSS	high polyreactivity
QVQLVESGGRLVQAGGSLRLSCAASGSIFTPYAMGCYIQAPGKERELVAAIRSVVRTNYADSVKGRFTISRDNAKNTVYLQLNSLNPEDTAVYYCATAVYPDFEYDSWGQGTQVTVSS	low polyreactivity
QVQLVESGGGLVQAGGSLRLSCAASGSTFQYYAMGWYRQAPGKEREFVAAIHWDGGRTYYADSVKGRFTISRDNAKNTVYLQMNSLKPEDTAVYYCAAYTRYKMDYWGQGTQVTVSS	high polyreactivity
QVQLVESGGGLVQAGCSLLLSCAASGRSFTHNAMGWYRPAHGPERELGAAITSRGRTTYADSVKGRFTISRDNAKNTVYVQMNSLKPEDTAVYYCATSVWFPITSYDYWGQGTQVTVSS	low polyreactivity
QVQLVESGGGLVQAGGSLRLSCAASGITFGYYAMGWYRQAPGKERELVAAIRSSGGSTYYADSVKGRFTISRDNAKNTVYLQMNSLKPEDTAVYYCNARYRKSSRPGYEPYERYYWGQGTQVTVSS	high polyreactivity
QDQLVESGGGLVQAGGSLRLSCAASGFTFGWYAMGWYRQAPGKERELVAAITSRGGSTYYPDSVKGRFTISRDNAKNTVYLQMNSLKPEDTAVYYCAALYGWSGYDYWGQGTQVTVSS	high polyreactivity

Sequence	polyreactivity (PSR sort gate)
QVHLVESGGGLVQAGGSLRLSCAASGFIFAGYTMGWYRQAPRKERELVAAINSGGSTKYADSVKGRFTISRDNAKNTVYLQMNSLKPEDTAVSYCNADYGWYFLFDYWGQGTQVTVSS	low polyreactivity
QVQLVESGGGLVQAGGSLRLSCAASGFTFQYYAMGWYRQAPGKERELVAAINWSGGRTYYADSVKGRFTISRDNAKNTVYLQMNSLKPEDTAVYYCAATRSFSGGYGYVSYDYWGQGTHVTVSS	high polyreactivity
QVQLVESGGGLVQAGGSLRLSCAASGRTFPSYVMGWYRQAPGKERELVAAITATGASTYYADSVKGRFTISRDNAKNTVYLQMNSQKPEDTAVYYCAASRYGLYENGYEYYWGQVTQVTVSS	low polyreactivity
QDHLVESGGGIVQAGGSLRLSCAASGRTFHLNAIGWYRQAPGKARELVAAITNSGGRTSNADSVKGRFTISRDNAKNTVYLQMNSLKPQVTEVFFCNVEVTYSSGKYDYWGQGTQVTVSS	low polyreactivity
QVQLVESGGGLVQAGGSLRLSCAASGRIFTKYAMGWYRQAPGKERELVAAISGSGGPTYYADSVKGRFTISRDNAKNTVYLQINSLKPEDTAVYYCGVPEIFDPKYQNDYWGQGTQVTVSS	low polyreactivity
QVQLVESGGGLVQAGGSLRLSCAASGSIFKAYDMGWYRPAPGKERELVAGISSSDSTYYADSVKGRFSISRDNAKNTVYLQLNSLKPEDTAVYYCAADPVFAAAYIHLYEYWGQGTQVTVSS	low polyreactivity
QVQLVESGGGLVQAGGSLRLSCAASGFTFTGYAMGWYRQAPGKERELVAVISETGGSTYADSVKGRFTISRDNAKNTVYLQMNSLKPEDTAVYYCNARSGYYLRYYDYDYWGQGTQVTVSS	low polyreactivity
QVQLVESGGGLDQAGGSLRLSCAASGLIFQVYAMGWYRQAPGKERELVAAISRSGGRTYNADSVKGRFTISRDNAKNTVYLQMNSLKPEDTAVYYCAAESYVDYPRWYDYWGQGTQVTVSS	high polyreactivity
QLQHVESGGGLVQAGGSLRLTCAASGRTFGYYAMGWYRQAPGKERELVAAITSGGRTYYADSVKGRFTISRDNAKNTVYLQMNSLKPEDTAVYYCNAPPRWCSRVAWYEYWGQGTQVTVSS	high polyreactivity
QVQLVESGGGLVQAGGSLRLSCAASGNIFRNNAMGWYRQAPGKERELVAAISYSGGRTYYADSVKGRFTISRDNAKNTVYLQMNSLKPEDTAVYYCAVTYGRNADDYEYWGQGTQVTVSS	high polyreactivity
QVQLVESGGGLVQAGGSLRLSCAASGRIYYTYAMGWYRQAPGKERELVAAIRRGGSTNYADSVKGRFTISRDNAKNTVYLQMNSLKPEDTAVYYCAADVYRASFWYGYWGQGTQVTVSS	low polyreactivity
QVQLVESGGGLVQAGGSLRLICAASGRIFNRYAMGWYRQAPGNERELVAAITWSGDRTNYADSVKGRFTISRDNAKNTVYLLMNSLKPEDTAVYYCAAADGIIESDYWGQGTQVTVSS	low polyreactivity
QVQLVESGGGLVQAGGSLRLSCAASGFTFRYYAMGWYRQAPGKERELVARISSRGGSTNYADSVKGRFTISRDNAKNTVYLQMNSLKAEDTAVYFCAAASWNSNRHYYVARYYYWGQGTQVTVSS	high polyreactivity
QVQLVESGGGLVQAGGSLRLSCAASGSTFQYYAMGWYRQAPGKERELVAAISAGGTRTYYADSVKGRFTISRDNAKNTVYLQMNSLKPEDPAVYYCNADDLHFVARYDYWGQGTQVTVSS	low polyreactivity
QVQLVETGGVLVQAGGSLRLSCAASGRTFRYNAMGWYRPAPGKEREFVAAITWGGGSTYYADSVKGRFTISRDNAKNTVYLQMNSLKPEDTAVYYCNADYIGNYQSIYQYDYWGQGTQVTVSS	low polyreactivity
QVQLVESGGGLVQAGGSFRLSSAPSGSIFVVYAMGGYIQAPGKERELVAAITSGGSTYYADSVKGRFTISRDNAKNTVYLQMNSLKPEDTAVYYCATTYRDGVYELSTFDYWGQGTQVTVSS	low polyreactivity
QVQLVESGGGLVQAGGSLRLSCAASGITFKYYTMGWYRQAPGKERELVASINNDGSTYYADSVKGRFTISRDNAKNTVYFQMNSLKPEDTAVYYCAASGYGWFWYDYWGHGTQVTVSS	high polyreactivity
QVQLVESGGGLVQAGGSLRLSCAASGFIFRVYGMGCYRQATAKERELVAAMTGGCGSTYYADSVKGRFTISRDNAKNTVYLQMNSLKPEDTAVYYCAAVRYSGVRYRYGIYSDTMDYWGQGTQVTVSS	high polyreactivity
QVQLVESGVGLVQAGGSLRLSCAASGFIIYGYVMGWYRQAPGKERELVAAINSSSGRTYYADSVKGRFTISRDNAKNTVYLQMNSLKPEDTAVYYCAAYYYGSYDGTPYDYWGQGTQVTVSS	low polyreactivity
QVQLVESGGGLVQAGGSLRLSCAASGRIFWSNAMGWYRQAPGKEREFVAAISSSGGRTYYADSVKGRFTISRDNAKNTVYLQMNSLKPEDTAVYYCAASNGYQAVTYDYWGQGTQVTVSS	high polyreactivity
QVQLVESGGGLVQAGGSLRLSCAASGSTIYRNTMGWYRQAPGKERELVAAISRSGSSTYYADSVKGRFTISRDNAKNTVFLQINSLKPEDTAVYYCAKEGLSYRYYYWGQGTQLTVSS	high polyreactivity
